We go through two variants from IntAct's records for PubMed 11698381.

The labels stand for the following.
B1: pH-response regulator protein palA/RIM20 (Saccharomyces cerevisiae), Q12033 (parent)
chain: MSELLAIPLKRTLEVDFATELSKLIDTTSFQTASFFQSDILKVVDARNNAIAPDISIDGLSALKEYYVILLQLEKKFPNNQIEFTWFQTLSQKSRGTSQYSLQWEKLTIIYNIGCMYSLLALNSNNDAAESLKTSCLYFQNAAGCFKHVLDHQKNLETIPVVDDATLNALTSLMLAQAQECFWFKAVQDKHKDSLIAKLSQQIVDFYCEAINDAQRGKLIRSDWINHLKAKKAYFSAVTYYRIALSFNEKKQFGNVVKALQMGLQFINESTLSSQAKFKTVVESSLKEAQRDNEFIYLQEVPSELPSIKPALMVKPSSSATLLPSIKKDETLFKDLIPIEVMEYCTAYNERQDEYVEQRVTNPLASLNKLLKESLTTFQIPQGLTKVSEAELSHYQASLNNLLINNKNVQVQLDNIEQILNEEAFTDNQLRLKHGTLNWTLPESSTTNTAYYEKLKKLRGYLDEGSAIDKQTNELFQSIDKNLIGSEIRLPESNDPLTNKIKMIIQERNDYIDRTRRKSSEYRILPKIITSYKKNGTVDFEPIFIGHLKYFDEDLRYVNSTKEENIKLIEEVNLSKKNNPGRSGIEPKKMVRIDPRELYIEDLRYSFKLLDEVKENLSAGTAFYENLITSTSNLYNEVQEYDTARRAEKARLDKSLTFEDQ

In this test the parent is B1. To be noted: with pacc_yeast RIM101, P33400.
Sequence of pacc_yeast RIM101, P33400 (P33400 whole entry): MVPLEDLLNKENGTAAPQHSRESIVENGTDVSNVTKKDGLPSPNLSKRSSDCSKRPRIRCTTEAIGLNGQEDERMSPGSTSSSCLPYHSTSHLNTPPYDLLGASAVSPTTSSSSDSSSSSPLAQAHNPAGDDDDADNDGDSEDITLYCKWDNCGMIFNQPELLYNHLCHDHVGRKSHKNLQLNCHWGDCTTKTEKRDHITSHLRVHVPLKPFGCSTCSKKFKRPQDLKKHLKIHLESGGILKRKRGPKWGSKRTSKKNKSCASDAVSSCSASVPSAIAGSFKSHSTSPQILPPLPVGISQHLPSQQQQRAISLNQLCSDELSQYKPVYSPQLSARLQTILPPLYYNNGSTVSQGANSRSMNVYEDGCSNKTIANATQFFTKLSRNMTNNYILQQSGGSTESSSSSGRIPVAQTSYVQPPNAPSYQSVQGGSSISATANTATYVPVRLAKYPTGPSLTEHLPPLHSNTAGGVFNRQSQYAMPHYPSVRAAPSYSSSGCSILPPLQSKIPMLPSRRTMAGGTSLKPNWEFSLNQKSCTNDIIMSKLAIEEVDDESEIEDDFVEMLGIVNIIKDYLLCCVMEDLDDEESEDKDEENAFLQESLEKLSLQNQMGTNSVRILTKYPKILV
As to Q177A;Q179A;E180A, the “effect of a mutation on the interaction” value is on record as “disrupting interaction”.

Take F623A;Y624A: the “effect of a mutation on the interaction” value is given as “disrupting interaction”.
